The results in this text go back to publication PMC3506182 (Cancer research, 2012).

A word on the Kd: it is the concentration at which binding is half-saturated.

The target of this test is T1, recombinant human CCN6 (rhCCN6) protein, full length (human, UniProt O95389 24-354).
T1 sequence (looked up): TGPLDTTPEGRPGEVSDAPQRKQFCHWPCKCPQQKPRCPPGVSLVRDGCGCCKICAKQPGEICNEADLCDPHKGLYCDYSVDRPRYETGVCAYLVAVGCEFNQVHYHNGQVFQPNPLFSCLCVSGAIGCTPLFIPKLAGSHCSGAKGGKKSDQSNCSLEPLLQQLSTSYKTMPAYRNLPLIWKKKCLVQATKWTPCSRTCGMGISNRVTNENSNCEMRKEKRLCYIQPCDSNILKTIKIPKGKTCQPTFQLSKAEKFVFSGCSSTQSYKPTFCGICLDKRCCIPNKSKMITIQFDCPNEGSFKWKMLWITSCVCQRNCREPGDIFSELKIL
Kind of test: SPR. On the technique in general: Surface plasmon resonance follows binding to a sensor surface in real time, without labels.

B1: disulfide linked homodimer of biotin labeled rhBMP4 (Bio-BMP4) (ligand, human, UniProt P12644 293-408, looked up)
chain: SPKHHSQRARKKNKNCRRHSLYVDFSDVGWNDWIVAPPGYQAFYCHGDCPFPLADHLNSTNHAIVQTLVNSVNSSIPKACCVPTELSAISMLYLDEYDKVVLKNYQEMVVEGCGCR
modifications: biotin label (site not stated)
Take B1: the Kd was 200 nM.
